Assay: yeast display, Sf9 membrane polyspecificity reagent, FACS + sequencing; frameworks hold sequencing errors
Procedure, shortened: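 Nanobodies from a synthetic yeast display library (Saccharomyces cerevisiae BJ5465), induced 36–48 hours with galactose, were stained 1 hour at 4 °C with 10% biotinylated, detergent-solubilized Sf9 membrane reagent, enriched on streptavidin microbeads, then FACS-sorted. Anti-HA (expression) and streptavidin (reagent binding) fluorescence set low and high (top ~1%) gates. Polyreactivity labels come from the gate of origin. Genes were colony-PCR amplified, MiSeq 2 × 250 sequenced and filtered by CDR length.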

| Sequence | polyreactivity (PSR sort gate) |
| --- | --- |
| QVQLEESGGGLVQAGGSLRLSFAASGRIFRYYAMGWYRHAPGKERELVPRMSWSGGSTHYADSVKGRFTISRDNAKNTVYLQMNSLTPEDTAVYYCAADGNGYPYRAGRTYDYWGQGTQVTVSS | low polyreactivity |
| QVQLEESGGGLVQAGGSLRLSSAASGRTLVHYAIGSYRQAPGKEREMVAAISIGGDSTYADSVKGRFTISRDNAKNTVYLQMNSLKPEDTAVYYCAASGWWDFFDPYFKFDYWGQGTQVTVSS | low polyreactivity |
| QVQLEESGGGLVQAGGSLRLTCAASGFIFKSYTMGWYRQATGKEMELVAAITSTGGGTYYADSVKGRFTISRDNAKNTVYLQMNSLKPEDTAVYYCNARTYVTVDYDFWGQGTQVTVSS | high polyreactivity |
| QVQLEESGGGLVQAGGSLRLTCAASGFIFQYYTMGWYRQAPGKERELVASITGTGGSTYYADSVKGRFTISRDNAKNTVYLQMNSLKPEDTAVYYCAAREGWGYEYDYWGQGTQVTVSS | high polyreactivity |
| QVQLEESGGGLVQAGGSLRLTCAASGRIFYRYGMGWYRQATGKERELVAAISRTGGSTYYADSVKGRFTISRDNAKNSVYLQMNSLKPEDTAVYYCNATSNYRYDFWGQGTQVTVSS | low polyreactivity |
| QVQLEESGGGLVQAGGSLRLTCAASGRTFLGNAMGSYRQAPGKEREFVAVISHSGGGTSYADSVKGRFTISRDNAKNTVYLQMNSLKAEETAVYYCAAYSVSSTTWYYYDEYGYWGQGTQVTVSS | low polyreactivity |
| QVQLEESGGGLVQAGGSLRLTCAASGSIFGSYTMGWYRKAPGKERELVAVISYSGGSTYYADSVKGRFSISRDNAKNTVYLQMNSLKPEDTAVYYCNAARKGVGYVHPYDFWGQGTQVTVSS | high polyreactivity |
| QVQLEESGGGLVQAGGSLRLTCAASGSTFRYYALGWYRQAPGKERELVAAISGSGGRTYYADSVKGRFTISRDNAKNTVYLQMNSLKPEDTEVYYCNTRGRRTDYDYWGQGTQVTVSS | high polyreactivity |
| QVQLEESGGGLVQAGGSLRLTCAASGSTFVRYVMGWYRQAPGKERELVAAISRRGGSTYYADSVKGRFTISRDNAKNTVYLEMNSLKPEDTAVYYCARTVGYRTLLESDSWGQGTQVTVSS | high polyreactivity |
| QVQLEESGGGLVQAGGSLRLTCAGSGRIFGIYAMGWYRQAPGKERQLVAAIRDSGSRTYYADSVKGRFTISRDNAKNTVYLQMNRLTPEDTAVYYCAARTYTYPYFGGYQYTYNYWGQGTQVTVSS | low polyreactivity |
| QVQLEESGGGLVQAGGSLSLSCAASGSSLDTYVMGWYRQAPGKEREVVAAISSDTSTNYADSVKGRFTISRDNAKNTVYLQMNSLNPEDTAVYYCAAVGSYYGWYQGFDYWGQGTLVTVSS | low polyreactivity |
| QVQLEESGGGLVQAGGSLSLTCAASGRTFFTYAMGWYRQAPGKERELVAAIRWTGGRTTYADSVKARFSISRDNAKNTVYLQMISLKPEDTAVYYCAARVGRTYASYSTGNYYWGQGTQVTVSS | high polyreactivity |
| QVQLEESGGGLVQEGGSLRLICAASGRIFGSYVMGWYRQAPGKERELVAAISRRGGSTYYADSVKGRFTISRDNAKNTVYLQMNSLKTEVTAVYYCAAEFSPSSNPYDYWGQGTQVTVSS | high polyreactivity |
| QVQLEESGGGLVQEGGSLRLSCAASGRTFYYYDMGWYRQAPGKERELVAAITWSGGSTYYADSVKGRFTISRDNAKNTVYLQRNCLKREDTAVYYCAADVTYSRYEYWGQGSQVTVSS | low polyreactivity |
| QVQLEESGGGLVQGGGSLRLSCAGSGRIFQLNAMGRYRQAPGIERELVADIRWSSGSTYYADTVKGRFTISRDNAKNSVYFQMYSLKPEDTAVYFCAGRVLYVHRQVYKMDYWGQGTQVTVSS | high polyreactivity |
| QVQLEESGGGLVQPGGSLRLSCAASGRIFADYAMGWYRQAPGKERELVADIRQSGGRTYYADSVKGRFTISRDNAKNTVYLQMNSLKPEDTALYYCATDYGSWGDYSGKYDYWGQGTQVTVSS | low polyreactivity |
| QVQLEESGGGVVQAGGSLRLSCAASGRIFNYYTMGWYRQATGKERELVARINSSGSTNLRRLCEGALHNFTRQCEVYRLFTDEQPETGRYRVYYCNADTKRSSREYEYWGQGTQVTVSS | low polyreactivity |
